Laboratory results reported in US20120058906A1 (published 2012).
Values belong to the binder of their own block, whether it stands above or below them.

Tests used:
[1] = target: T1, rHuman Notch-1/Fc Chimera, CF (R&D Systems Cat#3647-TK) (human, UniProt P46531 19-526); assay: MSD ECL multi-spot assay, antigen spotted on plate, Fab 0.93 uM; blank spot 4760
T1 construct: Bought protein; Fc part of the bought chimera not given

[2] = target: T2, rHuman Erythropoietin R/Fc Chimera, CF (R&D Systems Cat#963-ER) (human, UniProt P19235 25-250); assay: as above
T2 construct: Bought protein; also called EPOR; EPO R/Fc; Fc part of the bought chimera not given
T2 sequence: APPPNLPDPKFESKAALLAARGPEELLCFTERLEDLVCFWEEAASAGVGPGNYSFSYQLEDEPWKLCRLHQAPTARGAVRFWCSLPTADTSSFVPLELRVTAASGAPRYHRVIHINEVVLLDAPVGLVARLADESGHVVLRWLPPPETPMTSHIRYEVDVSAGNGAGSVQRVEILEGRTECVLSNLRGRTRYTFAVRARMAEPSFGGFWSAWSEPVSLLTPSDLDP

[3] = target: T3, rHuman IGF-1 sR (IGF-1 sR), CF (R&D Systems Cat#391-GR) (human, UniProt P08069 31-932); assay: as above
T3 construct: Bought soluble receptor; also called insulin-like growth factor-1 soluble receptor; IGF-R1

[4] = target: T4, rHuman HGF R/c-MET/Fc Chimera, CF (R&D Systems Cat#358-MT/CF) (human, UniProt P08581 25-932); assay: MSD ECL multi-spot assay, antigen spotted on plate, Fab 1.57 uM; blank spot 797
T4 construct: Bought protein; also called HGF R/Fc; hepatocyte growth factor receptor; Fc part of the bought chimera not given

[5] = target: T1, rHuman Notch-1/Fc Chimera, CF (R&D …); assay: as above
[6] = target: T5, rHuman CD44/Fc Chimera, CF (R&D Systems Cat#3660-CD) (human, UniProt P16070 21-220); assay: as above
T5 construct: Bought protein; Fc part of the bought chimera not given

[7] = target: T6, Recombinant Human DLL4 (R&D Systems Cat#1506-D4/CF) (human, UniProt Q9NR61 27-524); assay: as above
T6 construct: Bought protein; also called delta-like protein 4; rHuman DLL4

[8] = target: T2, rHuman Erythropoietin R/Fc Chimera, CF …; assay: as above
[9] = target: T3, rHuman IGF-1 sR (IGF-1 sR), CF (R&D …); assay: as above
[10] = target: T7, rHuman ErbB2/Fc Chimera, CF (R&D Systems Cat#1129-ER) (human, UniProt P04626 23-652); assay: as above
T7 construct: Bought protein; also called HER2/neu; human epidermal growth factor 2 receptor; Fc part of the bought chimera not given

[11] = target: T4, rHuman HGF R/c-MET/Fc Chimera, CF (R&D …); assay: MSD ECL multi-spot assay, antigen spotted on plate, Fab 0.13 uM; blank spot 786
[12] = target: T1, rHuman Notch-1/Fc Chimera, CF (R&D …); assay: as above
[13] = target: T5, rHuman CD44/Fc Chimera, CF (R&D Systems …); assay: as above
[14] = target: T6, Recombinant Human DLL4 (R&D Systems …); assay: as above
[15] = target: T2, rHuman Erythropoietin R/Fc Chimera, CF …; assay: as above
[16] = target: T8, rHuman EGF R/Fc Chimera, CF (R&D Systems Cat#344-ER) (human, UniProt P00533 25-645); assay: as above
T8 construct: Bought protein; also called epidermal growth factor receptor; Fc part of the bought chimera not given

[17] = target: T3, rHuman IGF-1 sR (IGF-1 sR), CF (R&D …); assay: as above
[18] = target: T7, rHuman ErbB2/Fc Chimera, CF (R&D …); assay: as above
[19] = target: T5, rHuman CD44/Fc Chimera, CF (R&D Systems …); assay: MSD ECL multi-spot assay, antigen spotted on plate, Fab 0.06 uM; blank spot 842
[20] = target: T6, Recombinant Human DLL4 (R&D Systems …); assay: as above
[21] = target: T3, rHuman IGF-1 sR (IGF-1 sR), CF (R&D …); assay: as above
[22] = target: T7, rHuman ErbB2/Fc Chimera, CF (R&D …); assay: as above
[23] = target: T9, rHuman P-Cadherin/Fc Chimera, CF (R&D Systems Cat#861-PC) (human, UniProt P22223 108-654); assay: MSD ECL multi-spot assay, antigen spotted on plate, Fab 0.28 uM; blank spot 1773
T9 construct: Bought protein; also called CDH3; Fc part of the bought chimera not given

[24] = target: T1, rHuman Notch-1/Fc Chimera, CF (R&D …); assay: MSD ECL multi-spot assay, antigen spotted on plate, Fab 0.48 uM; blank spot 2877;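 note: blank spot per well as comparator with Hit at signal to blank ratio of 4 or more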
[25] = target: T6, Recombinant Human DLL4 (R&D Systems …); assay: as above
[26] = target: T4, rHuman HGF R/c-MET/Fc Chimera, CF (R&D …); assay: MSD ECL multi-spot assay, antigen spotted on plate, Fab 0.51 uM; blank spot 1393
[27] = target: T5, rHuman CD44/Fc Chimera, CF (R&D Systems …); assay: as above
[28] = target: T6, Recombinant Human DLL4 (R&D Systems …); assay: as above
[29] = target: T3, rHuman IGF-1 sR (IGF-1 sR), CF (R&D …); assay: as above
[30] = target: T7, rHuman ErbB2/Fc Chimera, CF (R&D …); assay: as above

ECL signal [1]: 23700
ECL signal [2]: 16700
ECL signal [3]: 13900
B1: Fab VH1-46_IGHD3-10*01_IGHJ4*01 & L12_IGKJ1*01 (Fab, V domains shown)
VH: QVQLVQSGAEVKKPGASVKVSCKASGYTFTSYYMHWVRQAPGQGLEWMGIINPSGGSTSYAQKFQGRVTMTRDTSTSTVYMELSSLRSEDTAVYYCAREYYYGSGSYYNDYFDYWGQGTLVTVSS
VL: not shown

ECL signal [4]: 1040
ECL signal [5]: 1260
ECL signal [6]: 836
ECL signal [7]: 1500
ECL signal [8]: 6390
ECL signal [9]: 985
ECL signal [10]: 904
B2: Fab VH1-46_IGHD3-10*01_IGHJ4*01 & O1_IGKJ1*01 (Fab, V domains shown)
VH: B1 VH
VL: DIVMTQTPLSLPVTPGEPASISCRSSQSLLDSDDGNTYLDWYLQKPGQSPQLLIYTLSYRASGVPDRFSGSGSGTDFTLKISRVEAEDVGVYYCMQRIEFPSWTFGQGTKVEIK
notes: Fab from E. coli; VH joined to the CH1 (Flag and His tags) of Plasmid A, VL to the kappa CL of Plasmid C

ECL signal [11]: 969
ECL signal [12]: 1320
ECL signal [13]: 932
ECL signal [14]: 9850
ECL signal [15]: 1110
ECL signal [16]: 859
ECL signal [17]: 1170
ECL signal [18]: 840
B3: Fab VH1-8_IGHD2-2*01_IGHJ6*01 & L12_IGKJ1*01 (Fab, V domains shown)
VH: QVQLVQSGAEVKKPGASVKVSCKASGYTFTSYDINWVRQATGQGLEWMGWMNPNSGNTGYAQKFQGRVTMTRNTSISTAYMELSSLRSEDTAVYYCARGGYCSSTSCYADYYYYYGMDVWGQGTTVTVSS
VL: not shown

ECL signal [19]: 1680
ECL signal [20]: 13600
ECL signal [21]: 2320
ECL signal [22]: 1570
B4: Fab VH1-3_IGHD4-23*01_IGHJ4*01 & L12_IGKJ1*01 (Fab, V domains shown)
VH: QVQLVQSGAEVKKPGASVKVSCKASGYTFTSYAMHWVRQAPGQRLEWMGWSNAGNGNTKYSQEFQGRVTITRDTSASTAYMELSSLRSEDMAVYYCARDDYGGNSDYFDYWGQGTLVTVSS
VL: not shown

ECL signal [23]: 8060
B5: Fab VH1-46_IGHD2-15*01_IGHJ2*01 & L12_IGKJ1*01 (Fab, V domains shown)
VH: QVQLVQSGAEVKKPGASVKVSCKASGYTFTSYYMHWVRQAPGQGLEWMGIINPSGGSTSYAQKFQGRVTMTRDTSTSTVYMELSSLRSEDTAVYYCAREGYCSGGSCYSYWYFDLWGRGTLVTVSS
VL: not shown

ECL signal [24]: 12800
ECL signal [25]: 13700
B6: Fab VH1-46_IGHD6-13*01_IGHJ4*01 & A27_IGKJ1*01 (Fab, V domains shown)
VH: QVQLVQSGAEVKKPGASVKVSCKASGYTFTSYYMHWVRQAPGQGLEWMGIINPSGGSTSYAQKFQGRVTMTRDTSTSTVYMELSSLRSEDTAVYYCAREGYSSSWYDYFDYWGQGTLVTVSS
VL: not shown
notes: as for B2

ECL signal [26]: 1740
ECL signal [27]: 1880
ECL signal [28]: 5650
ECL signal [29]: 1740
ECL signal [30]: 1700
B7: Fab VH4-34_IGHD7-27*01_IGHJ4*01 & L5_IGKJ1*01 (Fab, V domains shown)
VH: QVQLQQWGAGLLKPSETLSLTCAVYGGSFSGYYWSWIRQPPGKGLEWIGEINHSGSTNYNPSLKSRVTISVDTSKNQFSLKLSSVTAADTAVYYCARANWGDYFDYWGQGTLVTVSS
VL: DIQMTQSPSSVSASVGDRVTITCRASQGISSWLAWYQQKPGKAPKLLIYAASSLQSGVPSRFSGSGSGTDFTLTISSLQPEDFATYYCQQANSFPPWTFGQGTKVEIKR
notes: as for B2
